The numbers were not newly measured in paper PMC9784434, which cites them from elsewhere.

This data set concerns the target NKG2D (Homo sapiens) (UniProt P26718).
UniProt P26718, sequence (P26718 whole entry): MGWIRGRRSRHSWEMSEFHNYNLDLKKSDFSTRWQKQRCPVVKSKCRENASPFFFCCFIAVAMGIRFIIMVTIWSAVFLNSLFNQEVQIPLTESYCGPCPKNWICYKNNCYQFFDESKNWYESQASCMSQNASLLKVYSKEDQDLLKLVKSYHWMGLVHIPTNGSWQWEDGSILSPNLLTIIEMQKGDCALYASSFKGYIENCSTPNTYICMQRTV

MICB (from UniProt Q29980): the Kd (usually a measure of binding affinity in units of concentration) was 800 nM.
